Laboratory results: patent publication US20220017612A1 (TILOS THERAPEUTICS, published 2022)

How the values were obtained:
[1] = molecular target: T1, soluble complex of the extracellular domain of human GARP and human LAP-TGFβ1 (human, UniProt Q14392 20-627); experiment: BLI, component 1
T1 construct: extracellular domain; also called sGARP-LAP-TGFβ1; sGARP-LAP
Description: A streptavidin-functionalized tip was equilibrated in binding buffer (10 mM sodium phosphate, 150 mM sodium chloride, 1% (w/v) bovine serum albumin, 0.05% (w/v) sodium azide, pH 7.4) and dipped in a 5 μg/mL solution of biotinylated antibody (i.e., 20E6_H0.2aL1_hIgG1, murine 16F4, or MHG8, a GARP-specific murine IgG2a described in Lienart et al. Science 2018; 362:952-956) in binding buffer for 30 seconds to load the tip with antibody. The antibody-loaded tip was then washed in binding buffer and placed in a solution containing 0-24 nM of a fusion protein containing a human IgG1 Fc domain fused to either human LAP-TGFβ1, the soluble GARP-LAP-TGFβ1 complex, or the soluble ECR3E-LAP-TGFβ1 complex. The antigen was allowed to bind to antibody for 5 minutes (association phase), and then the tip was moved to binding buffer (dissociation phase). The binding and dissociation data for 16F4 and MHG8 were well-fit by a 1:1 binding model. The association and dissociation phases for 20E6_H0.2aL1_hIgG1 antibody were fit to a 2:1 heterogenous ligand binding model to determine the binding rate constants.
As shown in FIG. 24 and Table 21, the 20E6_H0.2aL1_hIgG1 antibody bound to free LAP-TGFβ1 and the soluble GARP-LAP-TGFβ1 complex with nanomolar affinity, but not to the ECR3E-LAP-TGFβ1 complex. As expected, the anti-GARP antibody (MHG8) bound to the GARP-LAP-TGFβ1 complex, but not to free LAP-TGFβ1 or the ECR3E-LAP-TGFβ1 complex. 16F4 bound tightly to all three constructs.

[2] = molecular target: T2, fusion protein of a human IgG1 Fc domain and human LAP-TGFβ1 (human, UniProt P01137 30-390); experiment: BLI, signal change on binding
T2 construct: printed both as Fc-huB1 and LAP-TGFβ-Fc; also called Fc-huB1; Fc-human LAP
Description: Binding to human TGFβ1 of a subset of candidates was also tested by bio-layer interferometry (Octet). A streptavidin coated tip was equilibrated for 60 seconds in binding buffer (10 mM sodium phosphate, 150 mM sodium chloride, 1% bovine serum albumin, 0.05% sodium azide). The tip was then dipped in 10 μg/mL biotinylated antibody in binding buffer. After 15 seconds, the tip was washed in binding buffer for 60 seconds, and then dipped in 0-24 nM Fc-human LAP. Analyte association was measured for 5 minutes. The tip was transferred to binding buffer alone, and analyte dissociation was measured for 5 minutes. The association and dissociation data were fit to a 1:1 binding model.

T1 sequence (chain, as listed by the source limits assumed, chain 1 of 2): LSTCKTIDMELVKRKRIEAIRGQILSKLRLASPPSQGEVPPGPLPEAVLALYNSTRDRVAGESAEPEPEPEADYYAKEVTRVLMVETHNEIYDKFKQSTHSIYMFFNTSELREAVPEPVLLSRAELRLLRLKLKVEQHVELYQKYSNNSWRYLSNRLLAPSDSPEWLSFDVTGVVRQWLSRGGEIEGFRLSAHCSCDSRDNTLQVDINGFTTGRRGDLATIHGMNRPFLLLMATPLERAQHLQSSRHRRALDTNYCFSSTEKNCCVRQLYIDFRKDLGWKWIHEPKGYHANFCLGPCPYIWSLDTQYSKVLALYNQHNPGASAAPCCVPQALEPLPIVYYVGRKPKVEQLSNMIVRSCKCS
T1 sequence (Q14392 20-627 limits assumed, chain 2 of 2): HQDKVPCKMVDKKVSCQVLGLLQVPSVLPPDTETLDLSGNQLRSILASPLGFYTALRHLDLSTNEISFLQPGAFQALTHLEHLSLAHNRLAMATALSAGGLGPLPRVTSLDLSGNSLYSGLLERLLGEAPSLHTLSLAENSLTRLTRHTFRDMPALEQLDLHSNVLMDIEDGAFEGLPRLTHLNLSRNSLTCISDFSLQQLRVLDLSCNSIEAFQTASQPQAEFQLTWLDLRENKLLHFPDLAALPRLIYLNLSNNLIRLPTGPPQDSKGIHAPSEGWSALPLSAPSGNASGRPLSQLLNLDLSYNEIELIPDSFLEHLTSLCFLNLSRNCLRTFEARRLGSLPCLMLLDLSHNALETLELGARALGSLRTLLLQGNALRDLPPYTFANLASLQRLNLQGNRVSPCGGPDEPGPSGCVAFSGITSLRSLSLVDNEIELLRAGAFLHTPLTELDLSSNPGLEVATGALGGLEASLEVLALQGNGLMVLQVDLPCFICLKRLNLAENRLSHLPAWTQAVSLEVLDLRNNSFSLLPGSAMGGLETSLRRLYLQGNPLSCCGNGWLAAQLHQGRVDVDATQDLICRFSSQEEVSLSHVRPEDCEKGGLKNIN
T2 sequence (P01137 30-390 limits assumed): as the sequence (chain, as listed by the source limits assumed, chain 1 of 2) above

B1: 20E6_H0.2aL1_hIgG1 (antibody)
heavy: not shown
light: DIQMTQSPSSLSASVGDRVTITCRASQDITNYLNWYQQKPGKAVKLLIYYTSRLHSGVPSRFSGSGSGTDYTLTISSLQPEDFATYFCQQGDTLPWTFGQGTKLEIKRTVAAPSVFIFPPSDEQLKSGTASVVCLLNNFYPREAKVQWKVDNALQSGNSQESVTEQDSKDSTYSLSSTLTLSKADYEKHKVYACEVTHQGLSSPVTKSFNRGEC
notes: also called 20E6_H0.2aL1_IgG1; humanized 20E6
Kd [1]: 18.7 nM | koff [1]: 0.0518 s⁻¹ | kon [1]: 2.77e+06 M⁻¹ s⁻¹

B2: 22F9_hIgG1 (antibody, V domains shown)
VH: QVQLQQPGAELVKPGASVKLSCKASGYTFTSYWMHWVKQRPGQGLEWIGMIHPNSGSTNYNEKFKSKATLTVDKSSSTAYMQLSSLTSEDSAVYYCAYYDYDGFFDVWGTGTTVTVSS
VL: DIVLTQSPASLDVSLGQRATISCRASKSVSTSGYSYMHWYQQKSGQPPKLLIYLASNLESGVPARFSGSGSGTHFTLNIHPVEEEDAATYYCQHSRELPYTFGGGTKLEIK
Binding (nm) [2]: 0.27 nm
